Assay results as given in patent US20160346411A1.
Values joined by “and” are separate entries in the source; they are usually repeats but may differ in a detail not shown here. Equal entries are not always repeated. Each block holds one molecule with its values, some of them ahead of it. Numbered stars: 1 amine (or outer) side, 2 acyl side, 3 side chain; on linkers, the order of the positions; unused ones are H or OH. Bridge positions count the residues as written; N and C are the ends. TRITC = tetramethylrhodamine dye; Cysteamine = C(CS[*:2])N[*:1]; Ahx = NCCCCCC(=O)O

Columns and labels:
[1] = target: DD(E), soluble protein fragment of fibrin (human) (UniProt P02671); assay: competitive displacement of TRITC-Tn6 (0.1 µM) from DD(E) (2 µM), fluorescence anisotropy
[2] = target: DD(E), soluble protein fragment of fibrin (human) (UniProt P02671); assay: competitive displacement of TRITC-Tn6 (0.1 µM) from DD(E) (2 µM), fluorescence anisotropy, least-squares regression
clotted fibrin (human) [3] = assay: T1-weighted MR at 1.5T: percent change of signal-intensity ratio, phantom 2 (clotted fibrin) against phantom 1 (fibrinogen), 10 µM probe
clotted fibrin (human) [4] = assay: T1-weighted MR at 1.5T: percent change of signal-intensity ratio, phantom 3 (pelleted fibrin) against phantom 1 (fibrinogen), 10 µM probe, region of the pellet
clotted fibrin (human) [5] = assay: T1-weighted MR at 1.5T: percent change of signal-intensity ratio, phantom 3 (pelleted fibrin) against phantom 1 (fibrinogen), 10 µM probe, liquid above the pellet
clotted fibrin (human) [6] = assay: T1-weighted MR at 1.5T: percent change of signal-intensity ratio, phantom 2 (clotted fibrin) against phantom 1 (fibrinogen), 10 µM probe; 1 pre-treated with PDI and DTT is converted to EP-2104R
clotted fibrin (human) [7] = assay: T1-weighted MR at 1.5T: percent change of signal-intensity ratio, phantom 3 (pelleted fibrin) against phantom 1 (fibrinogen), 10 µM probe, region of the pellet; 1 pre-treated with PDI and DTT is converted to EP-2104R
clotted fibrin (human) [8] = assay: T1-weighted MR at 1.5T: percent change of signal-intensity ratio, phantom 3 (pelleted fibrin) against phantom 1 (fibrinogen), 10 µM probe, liquid above the pellet; 1 pre-treated with PDI and DTT is converted to EP-2104R
TRITC-Tn6-MDS = system: T1, TRITC-Tn6-MDS
T1 sequence: QWECPYGLCWIQ

[9] = target: DD(E), soluble protein fragment of fibrin (human) (UniProt P02671); assay: direct titration of the TRITC probe (0.1 µM) with DD(E) up to about 32 µM, fluorescence anisotropy plotted as % probe bound
[10] = target: DD(E), soluble protein fragment of fibrin (human) (UniProt P02671); assay: fluorescence anisotropy, serial dilution of DD(E) mixed with the probe; reference is cyclic TRITC-Tn6

Chain of clotted fibrin (human) (P50402 whole entry): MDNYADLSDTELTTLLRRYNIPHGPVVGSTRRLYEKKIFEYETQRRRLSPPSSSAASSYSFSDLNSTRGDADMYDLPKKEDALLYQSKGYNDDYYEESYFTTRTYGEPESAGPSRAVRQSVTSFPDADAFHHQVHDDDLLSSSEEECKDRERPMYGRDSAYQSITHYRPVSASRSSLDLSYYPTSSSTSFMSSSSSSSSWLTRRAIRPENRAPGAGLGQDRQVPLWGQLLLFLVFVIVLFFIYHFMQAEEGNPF

IC50 (read off the curve) [1]: 2000 nM | Kd [2]: 160 nM | %Δ SIR (clotted fibrin (human) [3]): 8% and 11% | %Δ SIR, lower region (clotted fibrin (human) [4]): 49% and 69% | %Δ SIR, upper region (clotted fibrin (human) [5]): -24% and -21% | %Δ SIR (clotted fibrin (human) [6]): 12% | %Δ SIR, lower region (clotted fibrin (human) [7]): 36% | %Δ SIR, upper region (clotted fibrin (human) [8]): -22%
Molecule: EP-2104R (peptide)

Kd [9]: 510 nM
Molecule: {TRITC-Ahx}-QWECPYGLCWIQ-NH2 (disulfide 4-9) [TRITC-Tn6 peptide (cyclic form)]

Further lines, the molecule ahead of its results:

Molecule: protein disulfide isomerase
conversion of Compound 1 to EP-2104R, followed by 1/T1 in the presence of 12.0 µM DD(E) (Compound 1): The rate of conversion of 1 to EP-2104R was most rapid for the reaction performed under condition D in which both PDI and DTT were present simultaneously | conversion of Compound 1 to EP-2104R, seen as fall of the anisotropy of TRITC-Tn6 on DD(E) (Compound 1): with 1 mg/L PDI plus 10 µM DTT the anisotropy falls from about 0.25 to about 0.183 in about 1170 s, with DTT alone only to about 0.233; with PDI alone it stays at about 0.25 like untreated | conversion of Compound 1 to EP-2104R, seen as rise of 1/T1 with 12.0 µM DD(E) (Compound 1): with 3 mg/L PDI plus 10.0 µM DTT 1/T1 rises from about 0.69 to about 0.825 s-1 in about 3750 s, with DTT alone from about 0.65 to about 0.715 s-1; with PDI alone it stays at about 0.64 s-1 like untreated | conversion of the mixed-disulfide form to the cyclized form, followed by LC-MS (TRITC-Tn6-MDS): PDI alone does not promote cyclization of the probe, but PDI in the presence of a reducing agent like dithiothreitol (DTT) promotes rapid conversion of the probe to the desired product compared to DTT alone | real-time change in fluorescence anisotropy in the presence of 2 µM DD(E) (TRITC-Tn6-MDS): it is evident that only when both PDI and DTT are present simultaneously that the probe is efficiently activated

Molecule: {TRITC-Ahx}-QWEC(Cysteamine)PYGLC(Cysteamine)WIQ-NH2 [TRITC-Tn6-MDS]
fold Kd relative to the cyclic form [10]: 20 fold | Kd [9]: 9650 nM
